Test results: the DeepSol protein solubility set

test: soluble on expression in E. coli; label from the status in PepcDB or PDB records

| Sequence | soluble on expression in E. coli |
| --- | --- |
| MGHHHHHHSHMPVTEKDLAEDAPWKKIQQNTFTRWCNEHLKCVNKRIGNLQTDLSDGLRLIALLEVLSQKRMYRKYHQRPTFRQMQLENVSVALEFLDRESIKLVSIDSKAIVDGNLKLILGLVWTLILHYSISMPVWEDEGDDDAKKQTPKQRLLGWIQNKIPYLPITNFNQNWQDGKALGALVDSCAPGLCPDWESWDPQKPVDNAREAMQQADDWLGVPQVITPEEIIHPDVDEHSVMTYLSQFPKAKLKPGAPLKPKL | soluble |
| MKPTFLEFRHLKTLLALKETGSVSLAAKRVYLTQSALSHQIKLIEEQFGLPLFERKSNPLRFTSAGERLIRLANEVMPKVIDAERDLARVKHGDAGQLRIAVECHTCFDWLMPAMDEFRQHWGLVELDIVSGFHTDPVGLLLSHRADWAIVSEIEHNDDVIFKPLFSYEMVGICSKNHSLAEKDIWEAEDFIDETWVTYPVPDDMLDLWRKVLKSKGINPTRRTTELTIAMIQLVASRRGIATIPYWAALPYLEKGYVVARKVTKEGLYSNLYAAIRKEDESLSYLEDFYQTVKSQSFSTLPGLSVLNL | not soluble |
| MASFPFLMTPETMNKLVTPNSASISSSSSSPSTSTSFSIDTLLSNPLAGIPQLHNFQDPFGAVGAAAAASALPWQFHPANYPFFSMLCGPLMPPFMAPYHHQHYASRRKRRHRTIFSEEQLNILETTFSTTHYPDATTREELAVQCSLKEERVEVWFKNRRAKERKQKKDDSRTSKHSGDDSECDESDEDTRKVKRIKRENSSGKETSSPESKASLKTSHSENLVLEPC | not soluble |
| MDVSFEFEHYQVRLIKSSDAVTIANYFMRNRHHLAPWEPKRSHAFFTPEGWKQRLLQLVELHKHNLAFYFVVVDKNEHKIIGTVSYSNITRFPFHAGHVGYSLDSEYQGKGIMRRAVNVTIDWMFKAQNLHRIMAAYIPRNEKSAKVLAALGFVKEGEAKKYLYINGAWEDHILTSKINDDWKP | soluble |
| MGHHHHHHSHMPPHPAIFFYCLLRQGLTMLPRLVLNFWAQAVHLPRPPRVLGLQAGGTAPGQKKLFLTSHFPPASPLPLCFSLQQNFKKHSPRSPPGILGSLYPGFCSPIATSPFAKGTRGLRVVGSSGRLSASS | not soluble |
| MLEEFLPSLIAHTPRQSARLIVADNGSTDDSVEFLRRQYPQVELILFPENYGFAEGYNRAIAQTECDCVVLLNSDVEVSEGWLDAPLALLQERSDVAAVQPKIRALRDKHAFEYAGAAGGYVDRWGYPFCRGRIFDAVETDTGQYDDIAEVFWASGAALFIRRQVYMAVGGLDPRFFAHQEEIDLCWRLHSRGWR | not soluble |
| HHHHHHTNEAYLAHERRELEAKRNQLRDEVDRTKTHMQDEAANDPNWFDITAQLWEFSQELRNRDREEKLIKKIEQTLKKVENED | soluble |
| MGSDKIHHHHHHMKSYIIVGAGILGASTAYHLAKTGARVTVIDRKEPGQATDAAAGIVCPWLSQRRNQDWYQLAKGGARYYKDLIHQLEKDGESDTGYKRVGAISIHTDASKLDKMEERAYKRREDAPEIGDITRLSASETKKLFPILADGYESVHISGAARVNGRALCRSLLSAAEKRGATVIKGNASLLFENGTVTGVQTDTKQFAADAVIVTAGAWANEILKPLGIHFQVSFQKAQIMHFEMTDADTGSWPVVMPPSDQYILSFDNGRIVAGATHENDAGLDDLRVTAGGQHEVLSKALAVAPGLADAAAVETRVGFRPFTPGFLPVVGAVPNVQGLYAANGLGASGLTMGPFLGAELAKLVLGKQTELDLSPYDPAGALA | not soluble |
| MSLKYAWIELHSRQWPVSLTCQVLGVSPSGYHARKARDVDTDRARRRISNDALLVHIKAVHAESKGEYGWPRVWKKLLAQGIRVSKDRVQQLMKLHGIRAKTKRRFKVTTDSNHSLPVAPDLLQRDFSPARPDQVWTMDITYIWTDEGWLFLTVILDLFSRQVVGWSMQPHMRTELVSDALRMAWFRRRPEAGLIVHSDRGSQYCSRDFQDLLKGYGMRSSMSRRGNCWDNAPTESLWGSLKRARILGQRFATRREAMDEVIDWLSFYNHSRLHSTLGYVSPMQFERDWYAAQNQRVAEGHHHHHH | not soluble |
| MGSDKIHHHHHHMSFKSSIAKMAGKSSYWFLHTFRSGGSSLPGKITTKIDPTILKDLGKDYDVIVITGTNGKTLTTALTVKVLRQKFDHVLTNPTGSNMEQGIVTTFLTDHKSKNGKNIAILEVDEANVIKVTQYIKPLAFVFTNIFRDQMDRYGEIYTTYRKILDGVKLAPEATIIANGDMPIFNSVDLPNPVVYYGFNNQPDGEMKADPNTDGVVCPRCEHIIHYKFISYSNQGKYYCPNCGWERPELTYQLTQITKLTPNLSKFFIDASNFTLHIGGLYNVYNALAAYSVGKFMGVPTSSIQKALNDPDERVFGRQEQINVDGKEITIVLVKNPVGLNQVIDMVGTESEPFSFVGLLNANYADGIDTSWIWDGNFEKLTQMPIQQYMTGGERYKDITFRLKVAGIEDNQLWTYDNLKDAVSNIKNLPTKRVYVFATYTAMLQLRKQLATEGYIKEGI | not soluble |
| SNAMMIKASTNEFRFCFKQMNKSQHELVLGWIHQPHINEWLHGDGLSNTIKDLHEFLNDGKPWATHWIAYDNEIPFAYLITSEIEKSEEYPDGAVTLDLFICRLDYIGKGLSVQMIHEFILSQFSDTKIVLINPEISNERAVHVYKKAGFEIIGEFIASWHPVPHYKMKLCIEDLKKQRLSA | soluble |
| MANSLCFFSSPPTFCFQSPSKNPKPSHFFSTNDNTSSLVQKRELLQTSRSQSFEVKAANNNPQGTKPNSLVCANCEGEGCVACSQCKGGGVNLIDHFNGQFKAGALCWLCRGKKEVLCGDCNGAGFIGGFLSTFDE | soluble |
| MSLGKMVIGFAHPDFNDMFLGFLLAGVQAYEAEQTNVEVVYVDAENDSDGQIAQVEDLIAQGVDAIMAIPVDLIATEFIVDRAQQAGVPVVLINRDSVEREDAYVGSDSLQAGTIQMEEVAAVLKGKGKIAIMNGQMGHTAQINRTLGNKQVVDQYPGMEVVIEGTGGWSREKGKELMESWIESGQTFDAVVANNDEMAIGAIMAAEEAGIVDELVFAGIDGTPDALDYMSKGKLTISVFQDAKGQGQTGLEQAIKLAKGESAEKMTNIPYETITKRNVDEGHHHHHH | soluble |
| MGSDKIHHHHHHMNQEDDAKLAYLMAVNAIQMTKARYCRFVDTKQWDRLRTLFTADCRFEGLGSAPDRADLDIFIQGISRRLAHVVSVHHCHMGEIELVGADEAKVIWAMEDHLEWQDSGEVVEAPGNRGFRGYGHYEECYVRQGDTWKISLLRLTRLGIHPIPDAQPRLGTGRLGANPDWLPSDRRLR | not soluble |
| NDDKEAKKEAQEKEKNTPNGLVYTNLDFDSFKATIKNLKDKKVTFKEVNPDIIKDEVFDFVIVNRVLKKIKDLKHYDPMIEKIFDEKGKEMGLNVEIQINPEVKDFFTFKSISTTNKQRCFLSLRGETREILCDNKLYNMLLAVFNSYDPNDLLKHISTVESLKKIFYTITCEAVY | soluble |
| MAHHHHHHMHIFIYIQYLCFGVNEIIFHKPHKCHFFIYNILEGEKGKKPGFINLSNIMNNHNKYESKGFSASSLNNKSFSMTNDKITCGNEKKEMEGEGILNGSSKVDEEDKNIYNSKNNNNNMNYFNNKKIETKKTLGHKDIFVYVLVAGGDGTVNWVLKEAEYYNINDNNFAIGVIPFGTGNDFAKAFGWKKIDRMLNHSFLFDVLKKIVDQTFKSKVEKHDYWNIHVVLKEQGYFNKINSRTKKKETLLNDDKENLHEMKLCMSNYFSIGIDSRIGRGFERHRQKSAVCNKFIYAVEGFKKVSFKKNTPINLIIDKMINMDNNNDNNDNDNNIDGNDNNNDGNDNNNVIFTTNHNESYPLLKKAMSIICINIPSYSSGNDIWNYTHKIGLILPKNITNDQKEQYQILKKTKQEVGDGILEFVIYQSGVDLGLEFTLKGRAYRVHQGFGPWKLLFKEQKYNVYFQVDGEYYLMSLPDYISIEHYKKINVLKNIL | not soluble |
| MSLIARDAHEGQFRSSGEPYITHPVAVASIIAQLHLDHEAVMAALLHDVIEDTPYTEEQLKEEFGASVAEIVDGVSKLDKLKFRTRQEAQVENFRKMILAMTRDIRVVLIKLADRTHNMRTLGSLRPDKRRRIAKETLEIYCPLAHRLGIEHIKNELEDLSFQAMHPHRYEVLKKLVDVARSNRQDLIERISQEIKVRLENSGIFARVWGREKHLYKIYQKMRIKDQEFHSIMDIYAFRVIVKNVDDCYRVLGQMHNLYKPRPGRVKDYIAVPKANGYQSLQTSMIGPKGVPVEVHIHTEDMEQVAEMGITAHWVYKENGKNDSTTAQIRVQRWLQSLVEIQQSVGNSFEFIENVKSEFFPKEIYVFTPKGRIVELPMGATAVDFAYAVHSDVGNTCVGVTVEHKPYPLSKALESGQTVNIITDPNAHPEVAWLNFVVTARAKTRIRHYLKQRCEEDAVKLGEVELNVALQPHNLGDFSIQQIRTVLDALALSSLDELLREIGLGNQSASMIAHQFVGVPLESANTKNLEFESKILTIAPMQVGKTQFAQCCHPILGDPIVGCCTEKNTVVVHHQHCASLKNACRQSLAKWDNVQSAVNFEAELQIEILNEQNALLSLMTAISASESSLQNIWTEELENNLLLVILQVCVKDIKHLANIVHRIKGITGVVNVKRNINELEGHHHHHH | not soluble |
| MSLTDPAPEPEPPVEGQWTALTASPDTWDETKRADISYQLLLYSFADSDGDGYGDLNGVTQKLDYLNQLGVKALWLSPIHPCMSYHGYDVTDYTKVNPQLGTESDFDRLVTEAHNRGIKIYLDYVMNHTGTAHPWFTEASSSSESPYRNYYSFSEDPKTDIAAGKIAMITQEGAAGYNAAEWFQVSDETAAVKGLLKFTLDWSNAPSPILVVSTGTKADEDNPDTGTDNAKYLYYGEDICKKFYDKGNNIYELTVDFESTWGLLIRTSNASFWPSGTKYGASSSSEKLALNKDFKLTNAGNPANIMFDSQQITYFHSHFCTDWFADLNYGPVDQAGESPAYQAIADAAKGWIARGVDGLRLDAVKHIYHSETSEENPRFLKMFYEDMNAYYKQKGHTDDFYMIGEVLSEYDKVAPYYKGLPALFEFSFWYRLEWGINNSTGCYFAKDILSYQQKYANYRSDYIEATKLSNHDEDRTSSKLGKSADKCKLAAAVLLTSAGHPYIYYGEELGLYGTKDNGDEYVRSPMLWGDSYTTNYTDKTDATVSKNVKTVADQQADTHSLLNIYFSLTRLRNTYPALAEGNMTKHSVYNESQEKDYKPIAAWYMTKDNEKLLVIHNFGGTAMQLPLTDKIEKVLFVNGETQQNTDSDSYTLKLGGYASVVFKLGNEGHHHHHH | soluble |
| MGSDKIHHHHHHMMSLSSAETIRASLHNALGKIESFKSCALLDYPDHPNIGDHLIWLGGVIYLTNVMKTQIKYTCSLHNFSPKTLEDNIGKSPIVFHGGGNLGDLWTEQQKFREGIISKYRDRPIVILPQSLYFRHEVNLIKTANIFNSHPNLTIFLRDERSYKIAREAFDKCQVFKAPDMAFQMTDLQDIFHIQNNKSSILYLSRKDREINQKQSENIFDLPNLVVEDWIAYEWKFGHPTKKLAKYVSTLYREVWQRGLATPIEWNSRQKWQNSYPYEVEFNHVYQPSIHQLSWSLMHSGVYQLKQHRLVITNRLHGHIICVLFNIPHVFLPNSYYKNEAFYEEWTKEIPDCRFIKDTSEVKIAVEELLASSTGKAIN | not soluble |
| VQLQQSGTELMKPGRSLKISCKTTGYIFSNYWIEWVKQRPGHGLEWIGKILPGGGSNTYNDKFKGKATFTADTSSNIAYMQLSSLTSEDSAVYYCARGEDYYAYWYVLDYWGQGTTVTVSSGGGGSDIELTQSPLSLPVSLGDQASISCRSSQSLVHSNGNTSLHWYLKKPGQSPKLLIYKVSTRFSGVPDRFSGSGSGTDFTLKISRVEAEDLGVYFCSQSTHVPFTFGSGTKLELK | soluble |
| MSAAHKNLLAVWAKEPKDLVAVEKALNELTKVLSASSDLNDKQSALASKDLYEISVLLAILKHDFETFDDYINQMHTYYTMAPENSENKHLMTGLHLMFLLAANRLSDFHMLLEQIPQKEQTSNAYISTPVRIEQSLMEGAYNKVVLTEKNIPSPFYTIFIRIMLDTIRREIATSIEKSFKVLTAKDATVMLLFDNDEQMKKFGQERKWHLDGERYVFEIEVAQEKPVNLDTVRVATQTLFYAKQLEQIV | not soluble |
